In assay [1] the target is T1, P4.
T1 chain: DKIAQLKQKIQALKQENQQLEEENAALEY
As to the kind of experiment: two-hybrid library CCmax.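 Further: natural log of median RNA to DNA barcode read ratio; higher means stronger binding.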

Assay [2] addresses T2, P4SN.
T2 chain: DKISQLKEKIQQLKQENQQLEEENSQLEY
Put plainly: two-hybrid library CCmax.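 Further: natural log of median RNA to DNA barcode read ratio; higher means stronger binding.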 The note with it: mean of both orientations.

Where two headings read alike, the source gives them in different places.

For the molecule DEIQQLEEEIAQLEWKNAALKEKNAQLKA [P3_WA], the interaction score in assay [1] (mean of both orientations) worked out at 1.5; in assay [2], 1.9.
Regarding DEIQQLEEEIAQLEWKNAARKEKNAQLKA [P3_WRA], the interaction score in assay [1] is -1.51; in assay [2], -1.65.
For DEIQQLEEEIAQLEQKNAALKEKNQALKY [P3], the results for the interaction score in assay [1] (mean of both orientations) and in assay [2] were 0.871 and 1.63, respectively.

The values above are taken from article PMC10397247.
